pKd: −log10 of the molar value.
Target: TAMRA‐NOP‐1 (EIN2 NLS peptide, N‐terminally labeled with 5‐TAMRA) (Arabidopsis thaliana)
Test: fluorescence polarisation; direct titration: TAMRA-NOP-1 constant at 250 nM, IMPα protein concentration varied; 50 μL samples; LS55 spectrometer; Kd by Logistic Fit in Origin; three independent measurements

pKd | Substance
5.52 | IMPα7_ΔIBB (importin α7 lacking the N-terminal importin β binding domain), Arabidopsis thaliana, recombinant (domain or fragment)
5.49 | ΔIBB_IMPα1 (importin α1 lacking the IBB domain), Arabidopsis thaliana, recombinant (domain or fragment)

From publication PMC12871931, “The importin‐alpha superfamily engages in ethylene signaling by shuttling ETHYLENE INSENSITIVE 2 from the endoplasmic reticulum to the nucleus” (The Febs Journal, 2025)
